Test results published in patent US20140087995A1 (published 2014).
Numbered stars: 1 amine (or outer) side, 2 acyl side, 3 side chain; on linkers, the order of the positions; unused ones are H or OH. Bridge positions count the residues as written; N and C are the ends. Side chains are listed from the residue outwards. Ends that are not written are not given here. * marks the point of attachment. C20 diacid = O=C(O)CCCCCCCCCCCCCCCCCCC(=O)*; γGlu = O=C(O)[C@H](CCC(=O)[*:2])N[*:1]; AEEA = NCCOCCOCC(=O)O

T1: human amylin receptor (amylin 3(a) receptor: human calcitonin receptor co-expressed with RAMP-3) (human, UniProt P30988 25-474; O60896 24-148, limits assumed)
T1 sequence (looked up) 1: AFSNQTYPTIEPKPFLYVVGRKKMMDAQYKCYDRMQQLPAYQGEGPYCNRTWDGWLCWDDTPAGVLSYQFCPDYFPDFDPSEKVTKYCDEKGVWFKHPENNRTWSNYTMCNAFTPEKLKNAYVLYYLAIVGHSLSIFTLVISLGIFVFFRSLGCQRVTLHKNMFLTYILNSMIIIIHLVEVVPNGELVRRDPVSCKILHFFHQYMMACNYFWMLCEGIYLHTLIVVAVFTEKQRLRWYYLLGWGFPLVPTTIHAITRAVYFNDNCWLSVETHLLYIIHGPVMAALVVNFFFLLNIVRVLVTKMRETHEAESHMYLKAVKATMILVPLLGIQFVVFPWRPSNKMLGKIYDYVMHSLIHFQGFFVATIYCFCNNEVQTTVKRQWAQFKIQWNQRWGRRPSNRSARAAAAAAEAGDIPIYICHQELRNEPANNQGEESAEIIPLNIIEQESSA
T1 sequence (looked up) 2: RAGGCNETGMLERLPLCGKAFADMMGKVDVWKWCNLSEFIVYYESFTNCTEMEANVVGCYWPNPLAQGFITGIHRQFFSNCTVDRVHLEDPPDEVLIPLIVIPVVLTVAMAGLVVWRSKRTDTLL

T2: human calcitonin receptor (human, UniProt P30988 25-474)
T2 sequence (looked up): T1 sequence (looked up) 1

B1: N^ε1-[2-[2-[2-(19-carboxynonadecanoylamino)ethoxy]ethoxy]acetyl]-[Arg17,Pro21,Pro27]-h-amylin (peptide)
peptide: K([AEEA-C20 diacid])CNTATCATQRLANFLRHSSPNFGAIPSSTNVGSNTY-NH2
modifications: disulfide 2-7; N-terminus assumed
SMILES: CC[C@H](C)[C@H](NC(=O)[C@H](C)NC(=O)CNC(=O)[C@H](Cc1ccccc1)NC(=O)[C@H](CC(N)=O)NC(=O)[C@@H]1CCCN1C(=O)[C@H](CO)NC(=O)[C@H](CO)NC(=O)[C@H](Cc1c[nH]cn1)NC(=O)[C@H](CCCNC(=N)N)NC(=O)[C@H](CC(C)C)NC(=O)[C@H](Cc1ccccc1)NC(=O)[C@H](CC(N)=O)NC(=O)[C@H](C)NC(=O)[C@H](CC(C)C)NC(=O)[C@H](CCCNC(=N)N)NC(=O)[C@H](CCC(N)=O)NC(=O)[C@@H](NC(=O)[C@H](C)NC(=O)[C@@H]1CSSC[C@H](NC(=O)[C@@H](N)CCCCNC(=O)COCCOCCNC(=O)CCCCCCCCCCCCCCCCCCC(=O)O)C(=O)N[C@@H](CC(N)=O)C(=O)N[C@@H]([C@@H](C)O)C(=O)N[C@@H](C)C(=O)N[C@@H]([C@@H](C)O)C(=O)N1)[C@@H](C)O)C(=O)N1CCC[C@H]1C(=O)N[C@@H](CO)C(=O)N[C@@H](CO)C(=O)N[C@H](C(=O)N[C@@H](CC(N)=O)C(=O)N[C@H](C(=O)NCC(=O)N[C@@H](CO)C(=O)N[C@@H](CC(N)=O)C(=O)N[C@H](C(=O)N[C@@H](Cc1ccc(O)cc1)C(N)=O)[C@@H](C)O)C(C)C)[C@@H](C)O
notes: also called compound 43
B2: N^ε-[(4S)-4-carboxy-4-(19-carboxynonadecanoylamino)butanoyl]Lys[Arg1,Arg17,Pro21,Pro27,His35]-h-amylin (peptide)
peptide: K([γGlu-C20 diacid])RCNTATCATQRLANFLRHSSPNFGAIPSSTNVGSHTY-NH2
modifications: disulfide 3-8; N-terminus assumed
SMILES: CC[C@H](C)[C@H](NC(=O)[C@H](C)NC(=O)CNC(=O)[C@H](Cc1ccccc1)NC(=O)[C@H](CC(N)=O)NC(=O)[C@@H]1CCCN1C(=O)[C@H](CO)NC(=O)[C@H](CO)NC(=O)[C@H](Cc1c[nH]cn1)NC(=O)[C@H](CCCNC(=N)N)NC(=O)[C@H](CC(C)C)NC(=O)[C@H](Cc1ccccc1)NC(=O)[C@H](CC(N)=O)NC(=O)[C@H](C)NC(=O)[C@H](CC(C)C)NC(=O)[C@H](CCCNC(=N)N)NC(=O)[C@H](CCC(N)=O)NC(=O)[C@@H](NC(=O)[C@H](C)NC(=O)[C@@H]1CSSC[C@H](NC(=O)[C@H](CCCNC(=N)N)NC(=O)[C@@H](N)CCCCNC(=O)CC[C@H](NC(=O)CCCCCCCCCCCCCCCCCCC(=O)O)C(=O)O)C(=O)N[C@@H](CC(N)=O)C(=O)N[C@@H]([C@@H](C)O)C(=O)N[C@@H](C)C(=O)N[C@@H]([C@@H](C)O)C(=O)N1)[C@@H](C)O)C(=O)N1CCC[C@H]1C(=O)N[C@@H](CO)C(=O)N[C@@H](CO)C(=O)N[C@H](C(=O)N[C@@H](CC(N)=O)C(=O)N[C@H](C(=O)NCC(=O)N[C@@H](CO)C(=O)N[C@@H](Cc1c[nH]cn1)C(=O)N[C@H](C(=O)N[C@@H](Cc1ccc(O)cc1)C(N)=O)[C@@H](C)O)C(C)C)[C@@H](C)O
notes: 38 residues: N-terminal extension by Lys (-1K); also called compound 44
B3: N^ε1-[(4S)-4-carboxy-4-(19-carboxynonadecanoylamino)butanoyl]-[His14,Arg17,Pro21,Pro27,His35]-h-amylin (peptide)
peptide: K([γGlu-C20 diacid])CNTATCATQRLAHFLRHSSPNFGAIPSSTNVGSHTY-NH2
modifications: disulfide 2-7; N-terminus assumed
SMILES: CC[C@H](C)[C@H](NC(=O)[C@H](C)NC(=O)CNC(=O)[C@H](Cc1ccccc1)NC(=O)[C@H](CC(N)=O)NC(=O)[C@@H]1CCCN1C(=O)[C@H](CO)NC(=O)[C@H](CO)NC(=O)[C@H](Cc1c[nH]cn1)NC(=O)[C@H](CCCNC(=N)N)NC(=O)[C@H](CC(C)C)NC(=O)[C@H](Cc1ccccc1)NC(=O)[C@H](Cc1c[nH]cn1)NC(=O)[C@H](C)NC(=O)[C@H](CC(C)C)NC(=O)[C@H](CCCNC(=N)N)NC(=O)[C@H](CCC(N)=O)NC(=O)[C@@H](NC(=O)[C@H](C)NC(=O)[C@@H]1CSSC[C@H](NC(=O)[C@@H](N)CCCCNC(=O)CC[C@H](NC(=O)CCCCCCCCCCCCCCCCCCC(=O)O)C(=O)O)C(=O)N[C@@H](CC(N)=O)C(=O)N[C@@H]([C@@H](C)O)C(=O)N[C@@H](C)C(=O)N[C@@H]([C@@H](C)O)C(=O)N1)[C@@H](C)O)C(=O)N1CCC[C@H]1C(=O)N[C@@H](CO)C(=O)N[C@@H](CO)C(=O)N[C@H](C(=O)N[C@@H](CC(N)=O)C(=O)N[C@H](C(=O)NCC(=O)N[C@@H](CO)C(=O)N[C@@H](Cc1c[nH]cn1)C(=O)N[C@H](C(=O)N[C@@H](Cc1ccc(O)cc1)C(N)=O)[C@@H](C)O)C(C)C)[C@@H](C)O
notes: also called compound 66
B4: N^ε1-[(4S)-4-carboxy-4-(19-carboxynonadecanoylamino)butanoyl]-[His14,Arg17,Pro21,Pro27]-h-amylin (peptide)
peptide: K([γGlu-C20 diacid])CNTATCATQRLAHFLRHSSPNFGAIPSSTNVGSNTY-NH2
modifications: disulfide 2-7; N-terminus assumed
SMILES: CC[C@H](C)[C@H](NC(=O)[C@H](C)NC(=O)CNC(=O)[C@H](Cc1ccccc1)NC(=O)[C@H](CC(N)=O)NC(=O)[C@@H]1CCCN1C(=O)[C@H](CO)NC(=O)[C@H](CO)NC(=O)[C@H](Cc1c[nH]cn1)NC(=O)[C@H](CCCNC(=N)N)NC(=O)[C@H](CC(C)C)NC(=O)[C@H](Cc1ccccc1)NC(=O)[C@H](Cc1c[nH]cn1)NC(=O)[C@H](C)NC(=O)[C@H](CC(C)C)NC(=O)[C@H](CCCNC(=N)N)NC(=O)[C@H](CCC(N)=O)NC(=O)[C@@H](NC(=O)[C@H](C)NC(=O)[C@@H]1CSSC[C@H](NC(=O)[C@@H](N)CCCCNC(=O)CC[C@H](NC(=O)CCCCCCCCCCCCCCCCCCC(=O)O)C(=O)O)C(=O)N[C@@H](CC(N)=O)C(=O)N[C@@H]([C@@H](C)O)C(=O)N[C@@H](C)C(=O)N[C@@H]([C@@H](C)O)C(=O)N1)[C@@H](C)O)C(=O)N1CCC[C@H]1C(=O)N[C@@H](CO)C(=O)N[C@@H](CO)C(=O)N[C@H](C(=O)N[C@@H](CC(N)=O)C(=O)N[C@H](C(=O)NCC(=O)N[C@@H](CO)C(=O)N[C@@H](CC(N)=O)C(=O)N[C@H](C(=O)N[C@@H](Cc1ccc(O)cc1)C(N)=O)[C@@H](C)O)C(C)C)[C@@H](C)O
notes: also called compound 70
B5: N^ε1-[(4S)-4-carboxy-4-(19-carboxynonadecanoylamino)butanoyl]-[His14,Arg17,Pro21,Pro27,Pro31]-h-amylin (peptide)
peptide: K([γGlu-C20 diacid])CNTATCATQRLAHFLRHSSPNFGAIPSSTPVGSNTY-NH2
modifications: disulfide 2-7; N-terminus assumed
SMILES: CC[C@H](C)[C@H](NC(=O)[C@H](C)NC(=O)CNC(=O)[C@H](Cc1ccccc1)NC(=O)[C@H](CC(N)=O)NC(=O)[C@@H]1CCCN1C(=O)[C@H](CO)NC(=O)[C@H](CO)NC(=O)[C@H](Cc1c[nH]cn1)NC(=O)[C@H](CCCNC(=N)N)NC(=O)[C@H](CC(C)C)NC(=O)[C@H](Cc1ccccc1)NC(=O)[C@H](Cc1c[nH]cn1)NC(=O)[C@H](C)NC(=O)[C@H](CC(C)C)NC(=O)[C@H](CCCNC(=N)N)NC(=O)[C@H](CCC(N)=O)NC(=O)[C@@H](NC(=O)[C@H](C)NC(=O)[C@@H]1CSSC[C@H](NC(=O)[C@@H](N)CCCCNC(=O)CC[C@H](NC(=O)CCCCCCCCCCCCCCCCCCC(=O)O)C(=O)O)C(=O)N[C@@H](CC(N)=O)C(=O)N[C@@H]([C@@H](C)O)C(=O)N[C@@H](C)C(=O)N[C@@H]([C@@H](C)O)C(=O)N1)[C@@H](C)O)C(=O)N1CCC[C@H]1C(=O)N[C@@H](CO)C(=O)N[C@@H](CO)C(=O)N[C@H](C(=O)N1CCC[C@H]1C(=O)N[C@H](C(=O)NCC(=O)N[C@@H](CO)C(=O)N[C@@H](CC(N)=O)C(=O)N[C@H](C(=O)N[C@@H](Cc1ccc(O)cc1)C(N)=O)[C@@H](C)O)C(C)C)[C@@H](C)O
notes: also called compound 62
B6: N^ε21-[(4S)-4-carboxy-4-[[(4S)-4-carboxy-4-(19-carboxynonadecanoylamino)butanoyl]amino]butanoyl]-[Asp14,Arg17,Lys21,Pro27,Asp35]-h-amylin (peptide)
peptide: KCNTATCATQRLADFLRHSSK([γGlu-γGlu-C20 diacid])NFGAIPSSTNVGSDTY-NH2
modifications: disulfide 2-7; N-terminus assumed
SMILES: CC[C@H](C)[C@H](NC(=O)[C@H](C)NC(=O)CNC(=O)[C@H](Cc1ccccc1)NC(=O)[C@H](CC(N)=O)NC(=O)[C@H](CCCCNC(=O)CC[C@H](NC(=O)CC[C@H](NC(=O)CCCCCCCCCCCCCCCCCCC(=O)O)C(=O)O)C(=O)O)NC(=O)[C@H](CO)NC(=O)[C@H](CO)NC(=O)[C@H](Cc1c[nH]cn1)NC(=O)[C@H](CCCNC(=N)N)NC(=O)[C@H](CC(C)C)NC(=O)[C@H](Cc1ccccc1)NC(=O)[C@H](CC(=O)O)NC(=O)[C@H](C)NC(=O)[C@H](CC(C)C)NC(=O)[C@H](CCCNC(=N)N)NC(=O)[C@H](CCC(N)=O)NC(=O)[C@@H](NC(=O)[C@H](C)NC(=O)[C@@H]1CSSC[C@H](NC(=O)[C@@H](N)CCCCN)C(=O)N[C@@H](CC(N)=O)C(=O)N[C@@H]([C@@H](C)O)C(=O)N[C@@H](C)C(=O)N[C@@H]([C@@H](C)O)C(=O)N1)[C@@H](C)O)C(=O)N1CCC[C@H]1C(=O)N[C@@H](CO)C(=O)N[C@@H](CO)C(=O)N[C@H](C(=O)N[C@@H](CC(N)=O)C(=O)N[C@H](C(=O)NCC(=O)N[C@@H](CO)C(=O)N[C@@H](CC(=O)O)C(=O)N[C@H](C(=O)N[C@@H](Cc1ccc(O)cc1)C(N)=O)[C@@H](C)O)C(C)C)[C@@H](C)O
notes: also called compound 59

These binders were tested against T1, human amylin receptor (amylin 3(a) …) (assay: cell-based or functional assay).

Binder | hAmylin-R funct. EC50 [nM]
B1 | 0.141
B2 | 0.198
B3 | 0.027
B4 | 0.04
B5 | 0.044
B6 | 0.389

What follows are binders tested against T2, human calcitonin receptor (assay: cell-based or functional assay).

Binder | Ratio hCT/hAmylin funct. (hCTR EC50 against hAmylin-R EC50) | hCTR funct. EC50 [nM]
B1 | 6.5 | 0.92
B2 | 24 | 4.75
B3 | 20.1 | 0.542
B4 | 17.9 | 0.715
B5 | 12.3 | 0.539
B6 | 5 | 1.95
